# Results taken from the supplement of paper PMC9428881.
# ± gives the standard error.
# Assay: background-corrected fluorescence of 3'-dye-labeled ssDNA relative to brightest sequence (3'-GCGCG) (fraction); higher = brighter dye fluorescence (less quenching)
# Conditions: dye: Cy3 (3' terminal)
# Method in brief: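 Arrays of single-stranded DNA, with a 3' Cy3 or Cy5 dye beside each of 1024 permuted pentamers, were built on glass slides through light-directed phosphoramidite synthesis. They were washed for 2 h at r.t. in acetonitrile and scanned at 532 or 635 nm, once before and once after overnight ethylenediamine/ethanol deprotection. Fluorescence is reported after subtracting unlabeled-oligo background and normalizing to the brightest sequence. Averages cover 10 features per array and at least 3 syntheses.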
row,Sequence,background-corrected fluorescence
1,TTTTTTGCGCATGAGCATGCTTTTTTTTTTTTTTTATCTA,0.482 ± 0.029
2,TTTTTTGCGCATGATCAGCATTTTTTTTTTTTTTTATCGT [TGCTA],0.605 ± 0.011
3,TTTTTTGCGCATGATCATCATTTTTTTTTTTTTTTATCGG [GGCTA],0.609 ± 0.022
4,TTTTTTGCGCATGATCATGATTTTTTTTTTTTTTTATCGC [CGCTA],0.534 ± 0.017
5,TTTTTTGCGCATGATCATGCTTTTTTTTTTTTTTTATCGA [AGCTA],0.635 ± 0.0066
6,TTTTTTGCGCATGATGAGCATTTTTTTTTTTTTTTATCCT [TCCTA],0.447 ± 0.015
7,TTTTTTGCGCATGATGATCATTTTTTTTTTTTTTTATCCG [GCCTA],0.518 ± 0.023
8,TTTTTTGCGCATGATGATGATTTTTTTTTTTTTTTATCCC [CCCTA],0.369 ± 0.026
9,TTTTTTGCGCATGATGATGCTTTTTTTTTTTTTTTATCCA [ACCTA],0.476 ± 0.012
10,TTTTTTGCGCATGATGCGCATTTTTTTTTTTTTTTATCAT [TACTA],0.511 ± 0.02
11,TTTTTTGCGCATGATGCTCATTTTTTTTTTTTTTTATCAG [GACTA],0.56 ± 0.045
12,TTTTTTGCGCATGATGCTGATTTTTTTTTTTTTTTATCAC [CACTA],0.399 ± 0.025
13,TTTTTTGCGCATGATGCTGCTTTTTTTTTTTTTTTATCAA [AACTA],0.522 ± 0.012
14,TTTTTTGCGCATGCGCAGCATTTTTTTTTTTTTTTATATT,0.543 ± 0.019
15,TTTTTTGCGCATGCGCATCATTTTTTTTTTTTTTTATATG [GTATA],0.531 ± 0.013
16,TTTTTTGCGCATGCGCATGATTTTTTTTTTTTTTTATATC [CTATA],0.438 ± 0.025
17,TTTTTTGCGCATGCGCATGCTTTTTTTTTTTTTTTATATA,0.537 ± 0.034

row,Sequence,background-corrected fluorescence
1,TTTTTTGCGCATGCTCAGCATTTTTTTTTTTTTTTATAGT [TGATA],0.587 ± 0.029
2,TTTTTTGCGCATGCTCATCATTTTTTTTTTTTTTTATAGG [GGATA],0.628 ± 0.019
3,TTTTTTGCGCATGCTCATGATTTTTTTTTTTTTTTATAGC [CGATA],0.519 ± 0.027
4,TTTTTTGCGCATGCTCATGCTTTTTTTTTTTTTTTATAGA [AGATA],0.602 ± 0.037
5,TTTTTTGCGCATGCTGAGCATTTTTTTTTTTTTTTATACT [TCATA],0.504 ± 0.024
6,TTTTTTGCGCATGCTGATCATTTTTTTTTTTTTTTATACG [GCATA],0.574 ± 0.022
7,TTTTTTGCGCATGCTGATGATTTTTTTTTTTTTTTATACC [CCATA],0.411 ± 0.027
8,TTTTTTGCGCATGCTGATGCTTTTTTTTTTTTTTTATACA [ACATA],0.492 ± 0.031
9,TTTTTTGCGCATGCTGCGCATTTTTTTTTTTTTTTATAAT [TAATA],0.567 ± 0.0072
10,TTTTTTGCGCATGCTGCTCATTTTTTTTTTTTTTTATAAG [GAATA],0.532 ± 0.019
11,TTTTTTGCGCATGCTGCTGATTTTTTTTTTTTTTTATAAC [CAATA],0.434 ± 0.032
12,TTTTTTGCGCATGCTGCTGCTTTTTTTTTTTTTTTATAAA [AAATA],0.567 ± 0.044
13,TTTTTTGCTCAGCAGCAGCATTTTTTTTTTTTTTTAGTTT [TTTGA],0.577 ± 0.017
14,TTTTTTGCTCAGCAGCATCATTTTTTTTTTTTTTTAGTTG [GTTGA],0.516 ± 0.037
15,TTTTTTGCTCAGCAGCATGATTTTTTTTTTTTTTTAGTTC [CTTGA],0.433 ± 0.023
16,TTTTTTGCTCAGCAGCATGCTTTTTTTTTTTTTTTAGTTA [ATTGA],0.57 ± 0.0086
17,TTTTTTGCTCAGCATCAGCATTTTTTTTTTTTTTTAGTGT [TGTGA],0.572 ± 0.021
